From patent US20170183407A1 come the findings set out here.

The test has as its target CD19 on tumor target cells (UniProt P15391). Put plainly: cell-based or functional assay.
UniProt P15391, sequence (P15391 20-556 limits assumed): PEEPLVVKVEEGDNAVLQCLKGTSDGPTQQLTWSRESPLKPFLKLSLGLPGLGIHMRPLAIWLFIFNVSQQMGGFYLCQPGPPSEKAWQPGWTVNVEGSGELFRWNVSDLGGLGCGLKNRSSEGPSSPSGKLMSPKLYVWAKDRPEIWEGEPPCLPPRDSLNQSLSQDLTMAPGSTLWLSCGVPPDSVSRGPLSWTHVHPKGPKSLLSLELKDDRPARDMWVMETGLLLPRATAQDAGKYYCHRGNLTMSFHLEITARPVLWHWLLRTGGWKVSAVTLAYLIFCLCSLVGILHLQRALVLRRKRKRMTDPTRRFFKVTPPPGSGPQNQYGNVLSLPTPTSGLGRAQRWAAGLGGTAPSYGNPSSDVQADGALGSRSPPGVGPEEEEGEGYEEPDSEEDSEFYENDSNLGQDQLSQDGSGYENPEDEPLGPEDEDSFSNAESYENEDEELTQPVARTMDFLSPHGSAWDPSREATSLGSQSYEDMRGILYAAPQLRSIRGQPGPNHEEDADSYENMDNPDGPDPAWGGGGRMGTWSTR

On to “Clinical-grade CD19RCD28mζ CAR (CoOpCD19RCD28ζ), on T cells”, for which the percentage of specific cell lysis (4-hour Chromium Release Assay) was 49%.
Consider “EZ CAR CD19RCD28mζ CAR (CD19-specific CAR activated through chimeric CD28/CD3-zeta, made with the EZ CAR platform), on T cells”, for which the percentage of specific cell lysis (4-hour Chromium Release Assay) was found to be 52%.
